The DeepSol protein solubility set

assay: soluble on expression in E. coli; label from the status in PepcDB or PDB records

Row | Sequence | soluble on expression in E. coli
1 | MGSDKIHHHHHHMVEELLGKALARKRSLRKDETIDVFNRVTYFFPKDFVITNYPRNPVAVFNPGAVLVGKALHVFPRLIFDYYKYVSSIGHFIVNIDDLLNGEVKKPLEMEVVFWPRDIQEFLGCEDPRVFFRNSRFELLYTAKGYKDWSQEGKPHTDFLAYAVLDEDLNLIEKRYISIKSTLGEYVPVSMKDSSFVESKVILTRLTVGDAKVCWRGRLEGSYIDLYSLDPVFFPEEWETKVGWSTNTVEVKEGYLVGWHAVLKDLTYKNGLALVDGRGRLLGTTNYVLSPKGVIEEYGDRIRVIFGCGLVVYGGRVIWIGGVSDWAIGVFETSEREIMNLMKEAT | not soluble
2 | MKEARKRMVKRAVQEIKDGMNVNLGIGMPTLVANEIPDGVHVMLQSENGLLGIGPYPLEGTEDADLINAGKETITEVTGASYFDSAESFAMIRGGHIDLAILGGMEVSEQGDLANWMIPGKMVKGMGGAMDLVNGAKRIVVIMEHVNKHGESKVKKTCSLPLTGQKVVHRLITDLAVFDFVNGRMTLTELQDGVTIEEVYEKTEADFAVSQSVLNS | soluble
3 | MGHHHHHHSHMQEEEEESWSTSSDLTISISEDDLILESPEPQPNPGGKMEGEDGIEALKLIHAEQERVALSTEKNCILQTLSSPDSEKESSTNAPTREPGQTPDSDVPRAQVGQHVATLKEHDNSVKEEATALLRKALTEECGRRSAIHSSESSCSLPSILNDNSGIKEAKPAVWLNSVPTREQEVSSGCGDKSKKENVAADIPITETEAYQLLKKATLQDNTNQTENRFQKTDASVSHLSGLNIGSGAFETKTANKIASEASFSSSEGSPLSRHENKKKPVINLKSNALWDESDDSNSEIEAALRPRNHNTDDSDDFYD | soluble
4 | MGSDKIHHHHHHMHIPPFDNQNQAIVGEGDAHVPLTYFNIVKLKEGEAYDYRLKGYETCIVPATGTVDVEVGGEVFADIGNRCVDVWDGDPEGVYVPTNVGAHITARTDAEIFVAGAQFTETLTPFAVRAGELDLVQYGSDETKTHRKIKHILGAGHHDRVGRLLVSELFTVGAGGWSGFPSHKHDTDRLPDETRHDECYNFRFKPDYGSGLQMLQREDNEPGDAYHIMNGSTVLIDKGYHPCCALPGYEMYYFTILGGLSQRSLKQYFQPTHSEQLHTIPGIMDMVAKFK | not soluble
5 | MRGSHHHHHHGSENLYFQSGAMEIREQLNLGGIVNAQNAQLSNCSDGAAQLESCGTAPDLKGITGWLNTPGNKPIDLKSLRGKVVLIDFWAYSCINCQRAIPHVVGWYQAYKDSGLAVIGVHTPEYAFEKVPGNVAKGAANLGISYPIALDNNYATWTNYRNRYWPAEYLIDATGTVRHIKFGEGDYNVTETLVRQLLNDAKPGVKLPQPSSTTTPDLTPRAALTPETYFGVGKVVNYGGGGAYDEGSAVFDYPPSLAANSFALRGRWALDYQGATSDGNDAAIKLNYHAKDVYIVVGGTGTLTVVRDGKPATLPISGPPTTHQVVAGYRLASETLEVRPSKGLQVFSFTYG | soluble
6 | MGSDKIHHHHHHMTVEYTASDLATYQNEVNEQIAKNKAHLESLTHPGSKVTFPIDQDISATPQNPNLKVFFFDIDNCLYKSSTRIHDLMQQSILRFFQTHLKLSPEDAHVLNNSYYKEYGLAIRGLVMFHKVNALEYNRLVDDSLPLQDILKPDIPLRNMLLRLRQSGKIDKLWLFTNAYKNHAIRCLRLLGIADLFDGLTYCDYSRTDTLVCKPHVKAFEKAMKESGLARYENAYFIDDSGKNIETGIKLGMKTCIHLVENEVNEILGQTPEGAIVISDILELPHVVSDLF | not soluble
7 | MGSDKIHHHHHHLQFAVLSSGSAGNCSLLMTDQHKILMDAGLSGKKTKELLAKVGVAIEDLDMVFLSHDHGDHSGGMGVLMRRYPQLNAFSNTVTWKYLEETGKIGCLPKDQINVIEPGQTKCYGDLEVTAFATSHDAAQPQYYVFSSGGKRLACLTDTGYVSEEVEYEIQDADAYLLEFNYDDLMLRSGPYPWSLQQRVRSDHGHLSNEQAAETLARVISSKTKHVFMAHRSQQNNLNYLARDVAEEVLAARDADVASDLELHDTEPMTPSSLINL | not soluble
8 | SAAKALKDLKNLPVSERNIDYKTKLLVGKMNGTAEDKPPQNSVPFDHNHPKGDEIEKPEAERVIVEIEYIESKDLNNVTQVDAVLKSLVTELDSKDWVLVCDALNTIRRLSIFHKEEMLHMLEKVILFIVKSLKNPRSAVSKTACMTSADIFSSYNDHTIDQLDLLLTQLLLKSSQDKRFVCEAAEKALVAMTAHVSPALLLPKLQPFLKNRNPRIRAKASTCFSRCVPRLGIEGIREYGIEKLVQAASSQLSDQLPESREAARAVLLELQTVYKKTTNVEPKEEHPEPVTWQIFCQSNLSPLSAQAVIRVTNVAGVAREGLVAGS | soluble
9 | MGSDKIHHHHHHMAVSAKYDEFNHWWATEGDWVEEPNYRRNGMSGVQCVERNGKKLYVKRMTHHLFHSVRYPFGRPTIVREVAVIKELERAGVIVPKIVFGEAVKIEGEWRALLVTEDMAGFISIADWYAQHAVSPYSDEVRQAMLKAVALAFKKMHSINRQHGCCYVRHIYVKTEGNAEAGFLDLEKSRRRLRRDKAINHDFRQLEKYLEPIPKADWEQVKAYYYAM | not soluble
10 | MYEWLNALPKAELHLHLEGTLEPELLFALAERNRIALPWNDVETLRKAYAFNNLQEFLDLYYAGADVLRTEQDFYDLTWAYLQKCKAQNVVHVEPFFDPQTHTDRGIPFEVVLAGIRAALRDGEKLLGIRHGLILSFLRHLSEEQAQKTLDQALPFRDAFIAVGLDSSEVGHPPSKFQRVFDRARSEGFLTVAHAGEEGPPEYIWEALDLLKVERIDHGVRAFEDERLMRRLIDEQIPLTVCPLSNTKLCVFDDMSQHTILDMLERGVKVTVNSDDPAYFGGYVTENFHALQQSLGMTEEQARRLAQNSLDARLVK | not soluble
11 | MTVTNMTEWFAKGVEALHHDHVYLARACFEQAVTEQRSPLSSSYLALCQAKTRGTFSDAIASAREAVAADPANPALYHNLGCIYLLAGKRTEAIETFRQGLEHHHHHH | not soluble
12 | MSLKLWENGTFYQMTAEGEQVSAVLTKNGQIHAVGEVADLKKQYATEIDETIDLEGKVVFPGFVDAHIHLLWYGQALERLNLNQTTTKKEALALILERTKQLASEEWLFVEGYDENKWSDEQTLISLVDLDGVSTTNPILVRRIDYHSVSINSALKAHIENFSENGFDGGGEIVRDKAGNFTGILRDNATTLAIDAFPAATPAELNAWLKIAITDLWSKGITGAHSEDLHYFTGFESTFAAFRNTVGANRLPFRAHLLIHHAELANFSTSKESFMSGDKFLELGAMKIFYDGTVGSRTALMSAGYADNPNEKGLQIHSDEAFEDLVQSARKAGLPVAIHILGDQAFANVIRTLRANPPKEGQYDRLIHTPWLTKELIAEAEGLPILFDVQPQFMASDLPWAIDVLGENHPPLAFAWNSLLRAGFPLAGGSDAPIEVPNPFWGIHAAVTRTANADLNGVKYWPEESLTVYEAIELYTKGAAFASYKTTSRGQIAPGFVADFTILAEDPFLIKPANLRHLEVMMTVVNEQVVYKKEGHHHHHH | soluble
13 | MVDYDKQMKTWIRSQHLICVGSDFIFETVDQTQLDKFETCIRGMGGRIRTVKAVGNWPMGPRRSFKILQATASVPRPGGEALVTYWAKKGSKTTRYSEISS | soluble
14 | MGSDKIHHHHHHMHQPSDFQVFRTLDRTSNARLLRSSTLSDGLALAHWYRDEAEILGYSDPGHHTLSLYLQGGWQTFRRDRPGLYGGPDRFCVMPAEHHSDWAVTRGLGFMHLYISPERLAGAAVRTLDCEPRSLQLEERTYIQDEPLAALCRTLERQDWNEPGEHLLCTSLAHQAVDHLLLTGCGRRTDVRWQGGLAAHVRRRLADYIESHLEQPLELGSLAELAALSEYHFARMFRVSFGLPPHRYVLERRLARARDLLAYSAQPLQEVSLACGFASPSHFNRRFREAHGATPGQYRAALKAS | not soluble
15 | MEYIYASLLLHSAKKEISEDALKNVLTAAGISVDEVRLKAVVAALKEVNIDEVLKNAAAMPVAVAAQPQATQAQPAAEEKKEEKKEEEKKGPSEEEIASGLASLFGLEHHHHHH | not soluble
16 | MGSDKIHHHHHHMKRAYAMPLTNPSFPPGPYRFFDREYIIITYRTTREALEAVVPAPLEIDEPLVKYEFIRMPDSTGFGDYTETGQVIPVKYKGQHGGYVHSMYLDDDAPIAGGRELWGFPKKLANPKIVHEGEVIVGTLHYGSVLCATGTMGYKHREADHDSVLASLAAPNFLIKIIPHVDGGPRICELVRYYLTDITLKEAWTAPAALDLRPHVMADVAKLPVLDIISAVHFKADLTLGLGEVVHDYLSDHNRLATSTTQPEKIRA | not soluble
17 | MGSDKIHHHHHHMLAGFAAAKAPEIDPALVDTLVAQIMQQADRHAEQSQKPDGQAIRNDAVRRLQTLEVLKNRALKEGLDKDKDVQNRFKIAEASFYAEEYVRFLERSETVSESALRQFYERQIRMIKLQQVSFATEEEARQAQQLLLKGLSFEGLMKRYPNDEQAFDGFIMAQQLPEPLASQFAAMNRGDVTRDPVKLGERYYLFKLSEVGKNPDAQPFELVRNQLEQGLRQEKARLKIDAILEENGVKP | not soluble
18 | MSYITKQDKVIAEAIEREFQRQNSNIELIASENFVSEAVMEAQGSVLTNKYAEGYPGRRYYGGCEFVDVTESIAIDRAKALFGAEHVNVQPHSGSQANMAVYLVALEMGDTVLGMNLSHGGHLTHGAPVNFSGKFYNFVEYGVDKDTERINYDEVRKLALEHKPKLIVAGASAYSRTIDFKKFKEIADEVNAKLMVDMAHIAGLVAAGLHPNPVEYADFVTTTTHKTLRGPRGGMILCKEEYKKDIDKTIFPGIQGGPLEHVIAAKAVAFGEALENNFKTYQQQVVKNAKVLAEALINEGFRIVSGGTDNHLVAVDVKGSIGLTGKEAEETLDSVGITCNKNTIPFDQEKPFVTSGIRLGTPAATTRGFDEKAFEEVAKIISLALKNSKDEEKLQQAKERVAKLTAEYPLYQ | not soluble
19 | RDSSDDWEIPDGQITVGQRIGSGSFGTVYKGKWHGDVAVKMLNVTAPTPQQLQAFKNEVGVLRKTRHVNILLFMGYSTKPQLAIVTQWCEGSSLYHHLHASETKFEMKKLIDIARQTARGMDYLHAKSIIHRDLKSNNIFLHEDNTVKIGDFGLATVKSRWSGSHQFEQLSGSILWMAPEVIRMQDSNPYSFQSDVYAFGIVLYELMTGQLPYSNINNRDQIIEMVGRGSLSPDLSKVRSNCPKRMKRLMAECLKKKRDERPSFPRILAEIEELARELSG | soluble
20 | MADDKDVLRDVWFGRIPACFTLSPDETTEREAEPYYLLLPRVSYLTLVTDKVKKHFLKVMKAEDVEEMWFEHEGTPLKWHYPIGVLFDLHASNSALPWNVTVHFKNFPEQDLLHCSTNSVIEAHFMSCIKEADALKHKGQVINDMQKKDHKQLWMGLQNDKFDQFWAMNRKLMEYPTEEGGFRYIPFRIYQTMSDRPFIQTLFRPVSSEGQALTLGDLLKELFPAAIEDEPKKFQVMIHGIEPLLETPIQWLSEHLSHPDNFLHISIIPAPSD | not soluble
21 | AIARSEWPFDYASEADAMLHRITPENFEKLVRFAARLLRVGEIIALPTDTVYGLAAAARNSHGIELLYQTKQRDLRKPLAIAVPSVEDVSVYLHTEHLPPGLLEAILPGPLTLLLRQREDYVGIDLQDVRIDQYRGWERAKRLAPNLNLRRDGLLGVRVPDASFACAVSRELGDPLALTSANVSGRGDCGSVDEFRALWSACAAVFDGGAMPKPVMPSTVVDLSVPGTFRITRAGWMATDLVRILENKFGLTNKSANTSN | soluble
